From the DeepSol protein solubility set come the findings set out here.

The data set is described as follows: soluble on expression in E. coli; label from the status in PepcDB or PDB records.
With “MAHHHHHHMTFCGFGCVSTSEVGIIENCGKFDRTADPGCFCIVPCVESVRGVVSLKVAISTVRVETKTRDNAVVNIETRLHYKVIAECAEDAFYRFSNPSEQIASFAASVVRGEVPKYTLDELFLMSDEIKKVVSAELTEKLRGFGFSLESTLLTRIEPSASVKTAISQTQINAYRRTAAEHESELNKILAVKAAEADYEEKRLSGVGLAQERQAIMKGLKSSIESFVNAVPSMRAKDVMNLLLLNQYFDAMKEVGSGKSNKLILMPNTCGAAPNFMADLVAAQAGAARMM”, the “soluble on expression in E. coli” value is listed as “not soluble”.
Consider “STGKKPKHHVLSHDIIPASKPIAEKLQIQPESPVVELKRILYNDDQPLTFEVTHYPLDLFPGIDTFIADGVSMHDILKQQYKVVPTHNTKLLNVVYAQQEESKYLDCDIGDALFEIDKTAFTSNDQPIYCSLFLMHTNRVTFTINSPYT”, for which the “soluble on expression in E. coli” value is “soluble”.
Then “MSLDRPRCCLRGKECCINRFQQVESRWGYSGTSDRIRFTVNRRISIVGFGLYGSIHGPTDYQVNMQIIEYEKKQTLGQNDTGFSCDGTANTFRVMFKEPIEILPNVCYTACATLKGPDSHYGTKGLKKVVHETPAASKTVFFFFSSPGNNNGTSIEDGQIPEIIFYTEGHHHHHH”, with “soluble”; and “MVALFQHSPYWQADGYGHSHRLKCQHFKQHRQYNDKLEISSNLGPQFNALLNILLNIVHPTLSHDTRRSKGLKIEGLLQSRELGNSWTVTMCIWVLKALQSSAPNKPLDWLDPMPCFQNLLARGTP”, with “soluble”; and “MGSDKIHHHHHHMSESAESVDLIKLPVSKLTLGMFVSAIDKNDQGRLAIANAGQIKHKDAILKLTKNGIKYVWVDTERSAEHCGFKRKVSNDSQVKKSIVTREKQQEQAQVILTEAKDLIRKVLSETFEGKAIEVAPFEALADSMIESVLLDEDALKCMSALRTKDAYLLEHSVNVAFLLVTFGKYLKLDRSMLREMAVGGILHDIGKIKVDNKVLHKPGKLTPEEFEHMKLHQVYALEIMSETKGLSQISKDVCLMHHEKLDGRGYPRGLKGDEIPLHGRMSCIVDIFDALTATRCYKEAMSPAAAFKILLSLTPFHLDQQLVYDFIRCIGVYPVGSLVELSDGRVGIVWASKDRDALHPIVKCFYSLKAKRYTEVVIVDLLKSELHIERGVSPSSLDIDPTPFY”, with “not soluble”.
For the sequence “MKLDAKSTIETGKAILGIELGSTRIKAVLIDQENKPIAQGSHTWENQLVNGLWTYSIDAIWSGLQDCYADLRSNVKKLYDTEIETLAAIGVSAMMHGYMPFNEKEEILVPFRTWRNTNTGRAAAELSELFVYNIPLRWSISHLYQAILDNEAHVKDIKFLTTLAGYVHWQITGEKVLGIGDASGMLPIDPTTNNYSAEMVAKFNNLIASKEYSWKLEDILPKVLSAGENAGVLTPEGCKKLDASGHLKAGIPVCPPEGDA”, the “soluble on expression in E. coli” value is reported as “not soluble”.
With “RKGHFSRCPKQYKHYCIKGRCRFVVAEQTPSCVCDEGYIGARCERVDLFY” the entry was “soluble”.
Take “MGSDKIHHHHHHMSFKKSELLNVLDMAFKKEFGKGLSLISPQWGLIAMKISSSTKTNTYGWLGFFPKMREWVGERQIKKMQAQAMSIENKTFESTVSISRTDIEDDQAGLFAPVVQQAGQSAAELPDDLVFSLLAKGKSTLCYDGQNFFDTDHPVYENVDGTGSHKEQSNLTTGSASEHPTFYILDDTNAIKPFIWQERSAPEIETKFDPSRSDKVFMEDVYLWGVRARGNAGFGFWQLIHCVEETELTADAVMKVLAQMRMLKGDGGKLLNIRPSTILVPPALEFKARQLFEAEIINGSTNPLKGVLKVAVSAQIATA”: the “soluble on expression in E. coli” value is “not soluble”.
With “MGHHHHHHSHSTKDRKIIPLKMCFAARNLSMPDLENRLIELHSPDSRNTLILRCKDTATAHSWFVAIHTNIMALLPQVLAELNAMLGATSTAGGSKEVKHIAWLAEQAKLDGGRQQWRPVLMAVTEKDLLLYDCMPWTRDAWASPCHSYPLVATRLVHSGSGCRSPSLGSDLTFATRTGSRQGIEMHLFRVETHRDLSSWTRILVQGCHAAAEL” the entry was “not soluble”.
Then “MGSDKIHHHHHHMKQIKHTFEEKKKMGGKASMWNLWHGCHKWSEGCRHCYVYRTDGKYGKDSSVVTKTEKFGLPLQKKKNGEYKIPSGNLVYTCFTSDFLIEDVDEWRAEAWEMMRIRQDLHFMFITKRIDRLQQCLPPDWGDGYDNVTICCTMENQDRVDYRLPIYKESPIKHKIIICEPLLSQIDFRGELEGWVEQVVAGGESGKEARVCNYDWVLDIRRQCVEAHVGFWFKQTGSYLLKDGHEYKVARQFQHSQARKAELNYTPEK”, with “not soluble”.
For “METVPGGRWVAEIYGCDVDILEDPKMVEAALVDAVMRLGAPRDSVQSVVYKFHPQGLSAAVVSPVAAVMIHTWPEDNASATLDLYFYRDGVDPEEVLKGLTRAFGAKEESAFRYWRGTEHAIKRRGFGAEKAE”, the “soluble on expression in E. coli” value is reported as “soluble”.
With “PVSGTPSGITELDNVTTGGQPGELIIIAARPAMGKTTFAQLVAQSTLNKYPDASIQFYSQEMPADQLVQRFMSMRSRISLQSIRQATELTELAWSKIAEAMGYIMNNWKDRLLIDDEPSLPPYRLRTKVRRNTRLYGKPKAIIIDYIQLMRSTGKFENRNLELAEISSELKKLAKETGCPVYALSQLNRSLEQRANKRPVNSDL” the entry was “not soluble”; with “MYLTLQEWNARQRRPRSLETVRRWVRESRIFPPPVKDGREYLFHESAVKVDLNRPVTGSLLKRIRNGKKAKS”, “soluble”.
With “MYEKTKWKIQKMMKKGVFSGASFCFIEGEKEESNCWGLAQVKPTKEQLTSAMLFDVASLTKVVGTTTVILQLVEEGKIILDQSLQTYYPSFQDSNITIRHLLTHTADLQGYIPNRDQLNAQELKDAYNHSFHAGKAIGKKVVYTDAGTILLGFMLEEMFQQSMIEILSERVLLPLGMNESTFLPKNPLNCVPTELHEQRGLIRGATHDPKAFVLREHAGNAGLFSNVYDLTKFVRMYLNRGSYHNHQFLKKETIDLLLVNQVPAADKPRSLGWDFKYDVATQRPLLFHTGYTGTFLLIDVQQQSALIFLSNRVHPEDHRNTYIEERDQLLATYLKEKSSVSDEMTSF” the entry was “not soluble”; with “MGSDKIHHHHHHMETIGQTLAKKDNHKYDTEKMTQAILSDQEIANFIAAHHLSKEQIKISLPKFNQYRLERTRFENHDQAYIAKGYQPLLVMNEGYADVAYKETKELIAAKKTQAISDRINVVSLPRSYKNISFDDINLDDVKRLDVFKRVADFVEQYPNPEQKGLYLYGDMGIGKSYLMAAMAHELSEQRGAATTLLHFPSFTIDVKNAINTGTVKKEIDAVKTADILILDDIGAEQSTSWIRDEVLQVILQYRMLEELPTFFTSNYSFKDLEAKLANIKGSDETWQAKRVMERIRYLAKEIHLEGENRR”, “not soluble”.
With “MGSDKIHHHHHHMRGEVKKIIEAIGDIFIGHEDVIRKVLAVALVNGNILFEDYPGLGKTLLAKAFAKILGLKFKRIQFTPDLLPADIIGTKVWKPEKGAFEVVKGPIFTNILLADEINRAPPKTQSALLEAMEERQVTIEGETFKLERPFFIIATQNPLELEGTYPLPEAQLDRFLVRLNIGYPRNEEDELEILKARLRWGKDDPTSDISPIISREDFIRMQEEVERGVIIHDDILRYIVRLVRRIREDERIEAGPSPRGGLALMKLAKANAFIEGRSYVIPDDVKYFAVEALAHRIVLKPEYSLERGIAEEIIREVLEEVPVPKDIRY” the entry was “not soluble”; with “MDAGLDARGKGWARAITRLCDEHLYYLMLYFRWFDEDSWRVLKPVFFGSLPFGVRDAVAWAMRRKVRATLRAQGLGVHGRDELLAFARDDLDALDGLLGQVPYYGGEHPCSADAAAYGILANLIEATLDTPLSHVARGYPRLVAYCERMRERVWSELEHHHHHH”, “not soluble”.
As for “MDKTNLGELINQGKSLLDESVEGFNVGEYHKGAKDGLTVEINKAEEVFNKEDATEEEINLAKESLEGAIARFNSLLIEESTGDFNGNGKIDIGDLAMVSKNIGSTTNTSLDLNKDGSIDEYEISFINHRILNLEHHHHHH”, the “soluble on expression in E. coli” value was “soluble”.
Then “MGSDKIHHHHHHMFDKQEFVSKLVTEEKAKIVLLVMDGLGDIPVNGKTPLQAANTPNLDNLAKESDLGQTIPVLPGITPGSGPGHLSLFGYDPIKYQIGRGILEALGIGVEVGEKDVVARANFATWDGKVVLDRRAGRPATEESAKVVQLLSEKIKKIEDVEITFYPGKEHRFVVKFTGEGLGDKVTDADPQKEGHPMVWAEGLDEPSKKTARIVNELIKKIAEVLKDNPKINFALIRGFSKYPDLPKFPQVYKMKAGAIATYPMYRGLAKLVGMEIIETGQTVADEIKTLKEKWNDYDFFYVHVKKTDSYGEDGKFEEKVKVIEEVDAIIPEIVSLNPDVLVITGDHSTPVPLKAHSWHPVPLLIWSKYTRRGLSQAFNEFECARGTLGTIHASDVMTLALAYAGKLEKFGA”, with “not soluble”.
Then “MGSDKIHHHHHHMSEVLKRRMRCAVYTRKSTDEGLDQEYNSIDAQRDAGHAYIASQRAEGWIPVADDYDDPAFSGGNMERPALQRMMADIEAGKIDVVVIYKIDRLTRSLADFSKMVEVFERYAVSFVSVTQQFNTTTSMGRLMLNILLSFAQFEREVTGERIRDKISASKRKGMWMGGVPPLGYDVENRRLVPNEREAKLIRHIFQRFVELGSSTALVKELKLDGVTSKAWTTQDGKTRDGRLIDKGHIYKLLSNRTYLGELRHKDQWYQAEHPPIINRELWDSVHAILETNGRVRGNTTRAKVPYLLKGIVFGNDGRALSPWHTTKKNGRRYRYYVPQRDAKEHAGASGLPRLPAAELESAVLDQLRAILRAPNLLGEMLPQAIKLDPTLDEAKITVAMTRLDAIWDQLFPAEQTRIVKLLVEKVIVSPNDLEVRLRANGIERLVLELRPEPVEQQEVARA”, with “not soluble”.
As to “MAHHHHHHMGCFNSTDAVADQDPASGYMYTKPNAKGTKEALFGGLLYRITDEEEGGLAFYNNSKDYEFHIKYLFGADSELNAVGDTKLEMQDDGILAEVVVYPLETKPFVQGTIDGYETKLEALPLSEEYFALHPEIDEAAYYRRLEAPKSSRF”, the “soluble on expression in E. coli” value is “soluble”.
Regarding “MASEHHEALNLYAVRVARGEGVKQDFARAASLFRRADRCGFNCEPVYDDMVNDFRDKAFGMELVSSKRAFLKALRPETAEARCTVGEAFIGQGDADSLRTGRELLTSAATLGSGKAMYLLGVLCRDGKGVAANAERAFMWFSLAASCGFAKAESERVNAEGKLDDAGRTRAMQLAARWRRQYLAPVCLEHHHHHH”, the “soluble on expression in E. coli” value is “not soluble”.
Then “MGSDKIHHHHHHMTATDSSILNQYLVGKEPFYQPQHDEVALFEAAYRKRLPVMVKGPTGCGKSRFVEFMAWRLGKPLVTVACNEDMTAADLVGRWLLDKDGTRWQDGPLTVAARYGAICYLDEIVEARQDTTVVIHPLTDHRRTLPLDKKGELIRAHPDFQLVISYNPGYQSLMKDLKQSTKQRFTGFEFDYPNAELEAGILVQETGVAPSIAAQLVTVAATARRLKGHGLDEGISTRLLVYAAMLMDDGVAPRAACRMALVQPITDDADIRATLEHAIDMTFA”, with “not soluble”.
On to “MPGTPIPMGRQTHRAHSASGFYTPHVSKLKTNYDREFQKFLRSAKTAIDHLDKIEMQILCPLKKKIKRFHKESNTLDVYFRSQTYWRSFYKELMNRSDDVMDCFRFEDLRDVAAVVESHRLPDVLVSFVTQQLMEWRELFKDVEWMRKFRELSHNMDSLKTKRIEHVLRQDIIREIGVAIDVHNLKIDDFRSHSNNTERVAEGIAHAIEESKNKQDAGNQLKHVPVLSKQMSVRRWYREHYGDPQALSDESDEESLSDGDNSSLFVGTADSSSRDASDISTEEVVTENEFDEFFN”, for which the “soluble on expression in E. coli” value is recorded as “not soluble”.
